In one assay the target is T1, BTN1A1 Peptide 4 (human).
T1 construct: also called BTN1A1-pep4- WT; Pep4
T1 peptide: EVEVGDRTDWAIGVC
As to the kind of experiment: ELISA, 10X dilution. On the technique in general: An ELISA detects its analyte on a solid surface through an enzyme-linked reagent.

The next assay concerns the target T2, hBTN1A1 ICD (human, UniProt Q13410 270-526).
T2 sequence: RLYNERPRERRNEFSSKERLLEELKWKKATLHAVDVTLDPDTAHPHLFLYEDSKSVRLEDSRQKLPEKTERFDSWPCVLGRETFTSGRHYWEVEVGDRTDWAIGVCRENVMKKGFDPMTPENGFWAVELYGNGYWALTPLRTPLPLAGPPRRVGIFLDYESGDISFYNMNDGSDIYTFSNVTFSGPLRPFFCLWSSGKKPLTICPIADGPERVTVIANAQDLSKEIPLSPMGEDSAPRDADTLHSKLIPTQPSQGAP
The experiment in a line: ELISA, 10X dilution.

Another assay addresses T3, denatured hBTN1A1 ICD (human, UniProt Q13410 270-526).
T3 construct: Same protein as hBTN1A1 ICD, denatured before the ELISA; also called hBTN1A1 ICD denatured; Denatured ICD
T3 sequence: T2 sequence
The experiment in a line: ELISA, 10X dilution.

The target in assay [1] is TRIM variant expressed by HEK293T cells. As to the kind of experiment: western blot, STC43H11-1 band over Flag band. (In general: In western blotting, separated proteins are transferred to a membrane and probed.)
Assay [2] has as its target peptide 4 variant D366A expressed by HEK293T cells (human). The experiment in a line: western blot, STC43H11-1 band over Flag band.
Assay [3] concerns the target peptide 4 variant E361A expressed by HEK293T cells (human). The experiment in a line: western blot, STC43H11-1 band over Flag band.
The target in assay [4] is peptide 4 variant G365A expressed by HEK293T cells (human). The experiment in a line: western blot, STC43H11-1 band over Flag band.
In assay [5] the target is peptide 4 variant I372A expressed by HEK293T cells (human). The experiment in a line: western blot, STC43H11-1 band over Flag band.
Assay [6] deals with peptide 4 variant R367A expressed by HEK293T cells (human). The experiment in a line: western blot, STC43H11-1 band over Flag band.
Assay [7] deals with peptide 4 variant T368A expressed by HEK293T cells (human). The experiment in a line: western blot, STC43H11-1 band over Flag band.
Assay [8] has as its target peptide 4 variant V362A expressed by HEK293T cells (human). The experiment in a line: western blot, STC43H11-1 band over Flag band.

B1: STC43H11-1 (antibody, V domains shown)
VH: QSLEESGGRLVTPGGSLTLTCTVSGIDLSSYAMGWVRQAPGEGLEWIGSIGTGGGTGYASWAKGRFTISKTSTTVDLKMTSLTASDTATYFCATSNLWGPGTLVTVSS
VL: QVLTQTASPVSAAVGGTVTINCQASQSVYNNNRCSWFQQKPGQPPKRLIYHTSTLDSGVPSRFKGSGSGTQFTLTISDVQCDDAATYYCLGNYDCSRADCAAFGGGTEVVVK
notes: From immunized New Zealand rabbits; IgG heavy chain and Kappa light chain; also called clone #43H11; Clone 43H11
Consider B1, for which the ELISA signal was determined as 2.83 with BTN1A1 Peptide 4, 2.96 in the assay with hBTN1A1 ICD and 2.9 in the assay with denatured hBTN1A1 ICD. The Normalized Fold is -0.00102 in assay [1]; -0.0409 in assay [2]; 0.231 in [3]; 0.414 in assay [4]; 0.000608 in assay [5]; 0.239 in assay [6]. The Normalized Fold turned out to be 0.0496 in assay [7] and 1.18 in assay [8].

Values taken from patent US20250189530A1 (STCUBE, published 2025).
